Laboratory results published in article PMC5676682, “Precision Targeting of Tumor Macrophages with a CD206 Binding Peptide” (Scientific Reports, 2017).
Where no end group is shown, it is not given here. FAM = 5(6)-carboxyfluorescein; Ahx = NCCCCCC(=O)O

Target: T1, recombinant mouse macrophage mannose receptor rmMMR/CD206 (mouse, UniProt Q61830 20-1388)
T1 construct: macrophage mannose receptor (CD206/MRC1), mouse, recombinant; take the limits from the vendor's data sheet; also called MRC1; mouse recombinant CD206; source: bought: R&D Systems (catalog number 2535-MM-050)
T1 sequence (looked up): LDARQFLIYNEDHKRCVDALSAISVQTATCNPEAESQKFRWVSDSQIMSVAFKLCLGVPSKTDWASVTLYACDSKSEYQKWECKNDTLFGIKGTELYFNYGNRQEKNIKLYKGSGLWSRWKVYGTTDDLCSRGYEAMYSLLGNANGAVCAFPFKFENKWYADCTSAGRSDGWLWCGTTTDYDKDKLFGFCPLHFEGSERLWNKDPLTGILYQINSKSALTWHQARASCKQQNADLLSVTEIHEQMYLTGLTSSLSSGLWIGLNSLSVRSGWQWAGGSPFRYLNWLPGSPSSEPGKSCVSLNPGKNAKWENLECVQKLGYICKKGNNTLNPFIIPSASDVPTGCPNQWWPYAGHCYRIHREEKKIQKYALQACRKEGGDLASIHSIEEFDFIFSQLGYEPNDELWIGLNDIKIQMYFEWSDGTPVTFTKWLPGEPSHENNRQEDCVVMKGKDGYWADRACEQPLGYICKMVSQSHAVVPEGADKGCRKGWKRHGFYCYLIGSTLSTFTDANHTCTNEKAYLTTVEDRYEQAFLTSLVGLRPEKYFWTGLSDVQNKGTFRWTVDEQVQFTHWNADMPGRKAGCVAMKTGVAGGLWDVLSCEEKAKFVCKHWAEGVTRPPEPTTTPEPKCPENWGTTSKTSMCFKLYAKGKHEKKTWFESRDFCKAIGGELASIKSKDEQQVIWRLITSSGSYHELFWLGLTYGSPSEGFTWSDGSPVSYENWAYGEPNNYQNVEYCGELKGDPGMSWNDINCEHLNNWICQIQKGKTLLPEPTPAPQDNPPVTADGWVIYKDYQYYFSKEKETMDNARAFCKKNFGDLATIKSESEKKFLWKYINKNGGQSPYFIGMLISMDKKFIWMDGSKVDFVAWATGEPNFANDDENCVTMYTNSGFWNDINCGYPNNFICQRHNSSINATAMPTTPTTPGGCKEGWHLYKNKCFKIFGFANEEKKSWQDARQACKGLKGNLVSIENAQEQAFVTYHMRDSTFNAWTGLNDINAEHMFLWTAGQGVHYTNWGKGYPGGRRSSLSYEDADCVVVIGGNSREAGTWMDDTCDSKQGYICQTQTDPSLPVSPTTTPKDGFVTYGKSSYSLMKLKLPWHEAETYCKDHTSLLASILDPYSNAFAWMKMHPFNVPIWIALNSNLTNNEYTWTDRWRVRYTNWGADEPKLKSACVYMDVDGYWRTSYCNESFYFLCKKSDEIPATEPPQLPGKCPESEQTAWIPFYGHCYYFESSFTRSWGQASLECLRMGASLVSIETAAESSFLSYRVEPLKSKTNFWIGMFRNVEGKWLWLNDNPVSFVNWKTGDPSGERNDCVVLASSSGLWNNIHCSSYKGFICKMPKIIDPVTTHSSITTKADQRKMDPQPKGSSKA
Test: fluorescence polarisation; fluorescence anisotropy in solution, kinetic mode, 50 nM FAM peptide and 1 µM protein (pseudo first-order), 25 °C, 10 mM Na-HEPES, 150 mM NaCl, 1 mM CaCl2, 0.1% Pluronic F-127, pH 7.4
Settings: both partners purified

- binding result: binds
B1: FAM-CSPGAK (peptide)
peptide: {FAM-Ahx}-CSPGAK
notes: also called linear CSPGAK motif; source: synthetic peptide; bought: TAG Copenhagen
